Test results published in patent WO2013151666A2.

Target: Low density lipoprotein receptor (LDLR) expressed on HEK293 cells transfected with LDLR modified mRNA (mRNA SEQ ID NO: 21463) (human) (UniProt P01130)
Assay: FACS; rising amounts of BODIPY-LDL on HEK293 cells transfected with LDLR mRNA, 1 h at 37 C

Low density lipoprotein receptor (LDLR) expressed on HEK293 cells transfected with LDLR modified mRNA (mRNA SEQ ID NO: 21463) (human), sequence (P01130 22-860): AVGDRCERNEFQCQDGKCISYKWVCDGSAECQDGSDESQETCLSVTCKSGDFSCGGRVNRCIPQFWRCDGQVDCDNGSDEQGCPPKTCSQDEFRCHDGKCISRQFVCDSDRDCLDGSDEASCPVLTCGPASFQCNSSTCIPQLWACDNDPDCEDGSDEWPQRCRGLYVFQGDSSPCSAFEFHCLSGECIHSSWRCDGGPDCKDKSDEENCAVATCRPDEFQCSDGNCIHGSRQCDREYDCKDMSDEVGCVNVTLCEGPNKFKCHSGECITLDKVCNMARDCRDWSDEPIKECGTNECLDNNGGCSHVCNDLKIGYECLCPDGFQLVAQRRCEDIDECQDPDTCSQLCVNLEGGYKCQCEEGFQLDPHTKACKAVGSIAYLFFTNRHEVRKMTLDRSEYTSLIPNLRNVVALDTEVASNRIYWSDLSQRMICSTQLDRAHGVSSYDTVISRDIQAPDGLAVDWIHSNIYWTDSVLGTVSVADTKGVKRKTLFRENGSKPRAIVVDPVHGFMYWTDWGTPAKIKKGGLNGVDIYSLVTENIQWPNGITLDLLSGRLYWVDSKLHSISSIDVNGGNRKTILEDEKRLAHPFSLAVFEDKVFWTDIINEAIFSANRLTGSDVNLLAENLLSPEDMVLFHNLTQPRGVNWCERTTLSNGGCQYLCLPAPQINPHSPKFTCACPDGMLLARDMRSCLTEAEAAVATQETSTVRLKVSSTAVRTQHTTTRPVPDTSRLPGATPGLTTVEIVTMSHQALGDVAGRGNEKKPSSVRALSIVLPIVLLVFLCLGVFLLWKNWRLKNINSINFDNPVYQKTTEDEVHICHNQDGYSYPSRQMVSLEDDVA

Kd: 0.06 µg/mL
Substance: BODIPY-labeled LDL (low density lipoprotein) (from UniProt P04114 28-4563) (ligand)
